Results taken from PMC8017132.

Tests used:
[1] = molecular target: activated coagulation factor XI (UniProt P03951); assay: stoichiometry of inhibition titration (residual protease activity); varying ratios of AAT variant to protease incubated at ambient temperature for 2 h, residual activity determined at 37°C, line regressed to zero residual activity
[2] = molecular target: activated coagulation factor XI (UniProt P03951); assay: inhibition kinetics (residual protease activity on chromogenic substrate); pseudo-first-order, at least a 10:1 molar ratio of AAT variant to protease (5–75 nM), 37°C, discontinuous method; k2 = kobs divided by the initial AAT variant concentration
[3] = molecular target: activated protein C (UniProt P04070); assay: as above
[4] = molecular target: factor XIIa (UniProt P00748); assay: as above
[5] = molecular target: thrombin (UniProt P00734); assay: as above

Sequence of UniProt P03951 (P03951 19-387, chain 1 of 2): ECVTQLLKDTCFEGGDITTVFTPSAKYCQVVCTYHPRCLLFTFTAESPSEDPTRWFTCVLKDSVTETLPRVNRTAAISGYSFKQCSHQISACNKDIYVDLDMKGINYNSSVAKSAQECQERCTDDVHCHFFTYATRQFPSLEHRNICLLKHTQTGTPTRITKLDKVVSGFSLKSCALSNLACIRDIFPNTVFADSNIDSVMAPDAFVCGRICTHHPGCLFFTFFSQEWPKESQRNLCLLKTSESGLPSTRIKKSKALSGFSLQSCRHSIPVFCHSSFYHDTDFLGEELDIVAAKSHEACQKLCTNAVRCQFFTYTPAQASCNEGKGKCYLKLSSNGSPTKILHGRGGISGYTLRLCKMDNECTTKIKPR
Sequence of UniProt P03951 (P03951 388-624, chain 2 of 2): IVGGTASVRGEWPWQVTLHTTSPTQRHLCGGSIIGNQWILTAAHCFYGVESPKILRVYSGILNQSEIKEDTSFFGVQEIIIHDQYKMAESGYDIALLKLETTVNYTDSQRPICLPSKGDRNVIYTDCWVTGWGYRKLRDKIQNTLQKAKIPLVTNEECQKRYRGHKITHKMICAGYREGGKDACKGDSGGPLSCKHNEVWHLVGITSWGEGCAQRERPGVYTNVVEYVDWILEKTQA

- SI (stoichiometry of inhibition) [1]: 2.7
- k2 (second-order rate constant of inhibition) [2]: 140000 M⁻¹ s⁻¹
- k2 (second-order rate constant of inhibition) [3]: 25000 M⁻¹ s⁻¹
- k2 (second-order rate constant of inhibition) [4]: 23000 M⁻¹ s⁻¹
- k2 (second-order rate constant of inhibition) [5]: 180000 M⁻¹ s⁻¹
Substance: alpha-1 antitrypsin M358R (from UniProt P01009 25-418) (natural protein)
